# Laboratory results reported in paper PMC10241913 (Nature Communications, 2023).
# Key:
# Conditions in all cases: both partners purified
# [1] = biological target: T1, p97 wild type (1-806) (UniProt P55072 1-806); test: fluorescence polarisation; displacement titration: UBXD1 incubated with 0.1 µM 5,6-FAM-p97-C10 peptide to 50% saturation, concentration of p97 successively increased; competitive binding model; 50 mM NaKPi buffer, pH 7.5, 25 °C
# T1 construct: p97/VCP, residues 1-806; also called p97-wt; p97-fl; source: E. coli BL21 DE3 (T1r), purified (Ni-NTA, anion exchange)
# T1 sequence (P55072 whole entry, the tested form may be a part): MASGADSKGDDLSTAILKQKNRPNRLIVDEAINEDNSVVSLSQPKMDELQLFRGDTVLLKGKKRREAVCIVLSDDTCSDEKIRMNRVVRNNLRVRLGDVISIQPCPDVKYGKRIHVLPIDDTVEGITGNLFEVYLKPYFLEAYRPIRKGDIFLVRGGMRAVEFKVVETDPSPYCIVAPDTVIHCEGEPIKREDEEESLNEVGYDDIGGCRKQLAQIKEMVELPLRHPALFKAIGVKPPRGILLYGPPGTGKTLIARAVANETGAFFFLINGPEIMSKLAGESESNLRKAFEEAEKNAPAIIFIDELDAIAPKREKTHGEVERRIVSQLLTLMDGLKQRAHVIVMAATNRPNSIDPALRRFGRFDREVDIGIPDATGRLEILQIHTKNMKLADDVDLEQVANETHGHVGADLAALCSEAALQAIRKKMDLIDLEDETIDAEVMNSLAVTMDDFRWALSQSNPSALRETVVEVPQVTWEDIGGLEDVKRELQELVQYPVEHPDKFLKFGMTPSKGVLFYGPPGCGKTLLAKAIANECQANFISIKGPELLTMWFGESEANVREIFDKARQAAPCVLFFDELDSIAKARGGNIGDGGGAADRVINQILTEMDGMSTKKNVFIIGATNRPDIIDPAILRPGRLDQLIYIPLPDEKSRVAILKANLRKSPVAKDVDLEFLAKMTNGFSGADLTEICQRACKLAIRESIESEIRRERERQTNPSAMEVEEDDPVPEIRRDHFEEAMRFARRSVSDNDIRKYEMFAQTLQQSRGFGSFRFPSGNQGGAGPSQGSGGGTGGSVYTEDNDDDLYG
# [2] = biological target: T2, p97-ΔD2-C (1–480) (UniProt P55072 1-480); test: fluorescence polarisation; fluorescence anisotropy; Atto594-labeled UBXD1 proteins, p97 constructs titrated; 50 mM NaKPi pH 7.5, 25 °C; all fitted with stoichiometry n = 1
# T2 construct: p97/VCP, residues 1-480; The pull-down methods give the concentration of the p97 variant as hexamer; also called ND1L; source: E. coli BL21 DE3 (T1r), purified (Ni-NTA, anion exchange)
# T2 sequence (P55072 1-480, stated change not applied): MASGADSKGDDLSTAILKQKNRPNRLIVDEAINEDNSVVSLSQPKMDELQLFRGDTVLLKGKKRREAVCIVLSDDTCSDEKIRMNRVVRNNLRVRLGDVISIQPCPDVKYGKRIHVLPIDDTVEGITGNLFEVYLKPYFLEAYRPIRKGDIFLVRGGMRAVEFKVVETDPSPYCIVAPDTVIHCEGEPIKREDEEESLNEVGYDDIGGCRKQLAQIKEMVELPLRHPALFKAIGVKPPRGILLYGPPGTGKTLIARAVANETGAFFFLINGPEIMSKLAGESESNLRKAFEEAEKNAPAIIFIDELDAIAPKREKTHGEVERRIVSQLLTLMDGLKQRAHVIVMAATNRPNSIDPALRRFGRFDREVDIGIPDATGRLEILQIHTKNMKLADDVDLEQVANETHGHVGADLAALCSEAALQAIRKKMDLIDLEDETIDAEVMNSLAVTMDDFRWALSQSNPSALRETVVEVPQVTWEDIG
# [3] = biological target: T3, p97-ΔC (1–766) (UniProt P55072 1-766); test: as above
# T3 construct: p97/VCP, residues 1-766; source: E. coli BL21 DE3 (T1r), purified (Ni-NTA, anion exchange)
# T3 sequence (P55072 1-766, stated change not applied): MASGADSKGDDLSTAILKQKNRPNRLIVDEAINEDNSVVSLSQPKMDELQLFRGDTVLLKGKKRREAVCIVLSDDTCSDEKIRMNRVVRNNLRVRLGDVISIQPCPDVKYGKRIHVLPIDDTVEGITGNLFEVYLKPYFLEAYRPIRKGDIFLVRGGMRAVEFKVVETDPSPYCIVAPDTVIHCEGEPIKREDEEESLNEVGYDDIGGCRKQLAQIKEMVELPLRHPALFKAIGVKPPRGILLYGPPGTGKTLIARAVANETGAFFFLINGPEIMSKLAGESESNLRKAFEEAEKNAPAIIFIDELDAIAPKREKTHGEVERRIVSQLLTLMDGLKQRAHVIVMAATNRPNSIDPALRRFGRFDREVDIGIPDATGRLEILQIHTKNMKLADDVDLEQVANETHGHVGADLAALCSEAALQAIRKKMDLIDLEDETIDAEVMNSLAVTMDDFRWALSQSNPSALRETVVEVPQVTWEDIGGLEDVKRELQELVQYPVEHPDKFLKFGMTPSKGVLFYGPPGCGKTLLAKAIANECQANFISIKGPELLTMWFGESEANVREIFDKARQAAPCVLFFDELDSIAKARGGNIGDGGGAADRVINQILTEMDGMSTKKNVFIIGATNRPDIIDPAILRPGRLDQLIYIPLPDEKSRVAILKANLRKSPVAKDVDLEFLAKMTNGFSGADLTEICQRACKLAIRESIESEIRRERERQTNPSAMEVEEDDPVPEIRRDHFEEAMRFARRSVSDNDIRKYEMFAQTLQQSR
# [4] = biological target: T4, p97-wt (1–806) (UniProt P55072 1-806); test: as above
# T4 construct: p97/VCP, residues 1-806; also called VCP; p97-fl; source: E. coli BL21 DE3 (T1r), purified (Ni-NTA, anion exchange)
# T4 sequence (P55072 whole entry, the tested form may be a part): as the sequence (P55072 whole entry, the tested form may be a part) above
# [5] = biological target: T5, Ubiquitin-GST (UniProt P0CG48 1-76); test: pull-down; screening pulldown: 25 µM Ubiquitin-GST, 1 µM p97 (hexamer) and UBXD1 variant with GSH beads, 30 min, 4 °C, IP buffer; Coomassie stain
# T5 construct: ubiquitin fused at its C-terminus to GST; also called Ub-GST; source: E. coli BL21 DE3 (T1r), purified; not shown: GST, C-terminal, kept
# [6] = biological target: T6, ubiquitin-GST fusion protein (Ub-GST) (UniProt P0CG48 1-76); test: pull-down; screen: 25 μM ubiquitin-GST, 1 μM p97 (hexamer) and equal amounts of UBXD1 variant (released from GSH beads by PreScission) with GSH beads, 30 min, 4 °C, IP buffer
# T6 construct: source: E. coli BL21 DE3 (T1r), purified
binder,measurement,setting,value
"UBXD1-wt (1-441) (natural protein, human, UniProt Q9BZV1 1-441, looked up, also called UBXD1-fl; UBXN6; not shown: GST, N-terminal, cleaved) MKKFFQEFKADIKFKSAGPGQKLKESVGEKAHKEKPNQPAPRPPRQGPTNEAQMAAAAALARLEQKQSRAWGPTSQDTIRNQVRKELQAEATVSGSPEAPGTNVVSEPREEGSAHLAVPGVYFTCPLTGATLRKDQRDACIKEAILLHFSTDPVAASIMKIYTFNKDQDRVKLGVDTIAKYLDNIHLHPEEEKYRKIKLQNKVFQERINCLEGTHEFFEAIGFQKVLLPAQDQEDPEEFYVLSETTLAQPQSLERHKEQLLAAEPVRAKLDRQRRVFQPSPLASQFELPGDFFNLTAEEIKREQRLRSEAVERLSVLRTKAMREKEEQRGLRKYNYTLLRVRLPDGCLLQGTFYARERLGAVYGFVREALQSDWLPFELLASGGQKLSEDENLALNECGLVPSALLTFSWDMAVLEDIKAAGAEPDSILKPELLSAIEKLL",Kd,[1],1.1 ± 0.1 µM
"UBXD1-VIMx (1–441, DI11/12AA, RL62/63AA) (natural protein, human, UniProt Q9BZV1 1-441, looked up, Atto594 (NHS ester; the UBXD1 proteins were labeled for anisotropy), also called UBXD1-VIMx mutant; not shown: GST, N-terminal, cleaved) MKKFFQEFKAAAKFKSAGPGQKLKESVGEKAHKEKPNQPAPRPPRQGPTNEAQMAAAAALAAAEQKQSRAWGPTSQDTIRNQVRKELQAEATVSGSPEAPGTNVVSEPREEGSAHLAVPGVYFTCPLTGATLRKDQRDACIKEAILLHFSTDPVAASIMKIYTFNKDQDRVKLGVDTIAKYLDNIHLHPEEEKYRKIKLQNKVFQERINCLEGTHEFFEAIGFQKVLLPAQDQEDPEEFYVLSETTLAQPQSLERHKEQLLAAEPVRAKLDRQRRVFQPSPLASQFELPGDFFNLTAEEIKREQRLRSEAVERLSVLRTKAMREKEEQRGLRKYNYTLLRVRLPDGCLLQGTFYARERLGAVYGFVREALQSDWLPFELLASGGQKLSEDENLALNECGLVPSALLTFSWDMAVLEDIKAAGAEPDSILKPELLSAIEKLL",Kd,[2],466 ± 9 µM
same,Kd,[3],87 ± 1 µM
"UBXD1-wt (1–441), Atto594-labeled for fluorescence anisotropy with p97 (natural protein, human, UniProt Q9BZV1 1-441, looked up, Atto594 (NHS ester, ratio 1:1.2), not shown: GST, N-terminal, cleaved) MKKFFQEFKADIKFKSAGPGQKLKESVGEKAHKEKPNQPAPRPPRQGPTNEAQMAAAAALARLEQKQSRAWGPTSQDTIRNQVRKELQAEATVSGSPEAPGTNVVSEPREEGSAHLAVPGVYFTCPLTGATLRKDQRDACIKEAILLHFSTDPVAASIMKIYTFNKDQDRVKLGVDTIAKYLDNIHLHPEEEKYRKIKLQNKVFQERINCLEGTHEFFEAIGFQKVLLPAQDQEDPEEFYVLSETTLAQPQSLERHKEQLLAAEPVRAKLDRQRRVFQPSPLASQFELPGDFFNLTAEEIKREQRLRSEAVERLSVLRTKAMREKEEQRGLRKYNYTLLRVRLPDGCLLQGTFYARERLGAVYGFVREALQSDWLPFELLASGGQKLSEDENLALNECGLVPSALLTFSWDMAVLEDIKAAGAEPDSILKPELLSAIEKLL",Kd,[4],1.64 µM
same,Kd,[3],11.9 ± 0.2 µM
"UBXD1-His E368A/D373A (natural protein, human, UniProt Q9BZV1 1-441, looked up, the mutant's name is printed in four ways; not shown: GST, N-terminal, cleaved) MKKFFQEFKADIKFKSAGPGQKLKESVGEKAHKEKPNQPAPRPPRQGPTNEAQMAAAAALARLEQKQSRAWGPTSQDTIRNQVRKELQAEATVSGSPEAPGTNVVSEPREEGSAHLAVPGVYFTCPLTGATLRKDQRDACIKEAILLHFSTDPVAASIMKIYTFNKDQDRVKLGVDTIAKYLDNIHLHPEEEKYRKIKLQNKVFQERINCLEGTHEFFEAIGFQKVLLPAQDQEDPEEFYVLSETTLAQPQSLERHKEQLLAAEPVRAKLDRQRRVFQPSPLASQFELPGDFFNLTAEEIKREQRLRSEAVERLSVLRTKAMREKEEQRGLRKYNYTLLRVRLPDGCLLQGTFYARERLGAVYGFVRAALQSAWLPFELLASGGQKLSEDENLALNECGLVPSALLTFSWDMAVLEDIKAAGAEPDSILKPELLSAIEKLL",binding result,[5],binds
"UBXD1 Q278A/F286A/L288A (full length, recombinant) (natural protein, human, UniProt Q9BZV1 1-441, looked up, UBXD1 (UBXN6), human, mutant in the context of recombinant UBXD1-fl) MKKFFQEFKADIKFKSAGPGQKLKESVGEKAHKEKPNQPAPRPPRQGPTNEAQMAAAAALARLEQKQSRAWGPTSQDTIRNQVRKELQAEATVSGSPEAPGTNVVSEPREEGSAHLAVPGVYFTCPLTGATLRKDQRDACIKEAILLHFSTDPVAASIMKIYTFNKDQDRVKLGVDTIAKYLDNIHLHPEEEKYRKIKLQNKVFQERINCLEGTHEFFEAIGFQKVLLPAQDQEDPEEFYVLSETTLAQPQSLERHKEQLLAAEPVRAKLDRQRRVFAPSPLASQAEAPGDFFNLTAEEIKREQRLRSEAVERLSVLRTKAMREKEEQRGLRKYNYTLLRVRLPDGCLLQGTFYARERLGAVYGFVREALQSDWLPFELLASGGQKLSEDENLALNECGLVPSALLTFSWDMAVLEDIKAAGAEPDSILKPELLSAIEKLL",binding result,[6],binds
"UBXD1 R305A (full length, recombinant) (natural protein, human, UniProt Q9BZV1 1-441, looked up, UBXD1 (UBXN6), human, mutant in the context of recombinant UBXD1-fl) MKKFFQEFKADIKFKSAGPGQKLKESVGEKAHKEKPNQPAPRPPRQGPTNEAQMAAAAALARLEQKQSRAWGPTSQDTIRNQVRKELQAEATVSGSPEAPGTNVVSEPREEGSAHLAVPGVYFTCPLTGATLRKDQRDACIKEAILLHFSTDPVAASIMKIYTFNKDQDRVKLGVDTIAKYLDNIHLHPEEEKYRKIKLQNKVFQERINCLEGTHEFFEAIGFQKVLLPAQDQEDPEEFYVLSETTLAQPQSLERHKEQLLAAEPVRAKLDRQRRVFQPSPLASQFELPGDFFNLTAEEIKREQALRSEAVERLSVLRTKAMREKEEQRGLRKYNYTLLRVRLPDGCLLQGTFYARERLGAVYGFVREALQSDWLPFELLASGGQKLSEDENLALNECGLVPSALLTFSWDMAVLEDIKAAGAEPDSILKPELLSAIEKLL",binding result,[6],binds
"UBXD1 R307A (full length, recombinant) (natural protein, human, UniProt Q9BZV1 1-441, looked up, UBXD1 (UBXN6), human, mutant in the context of recombinant UBXD1-fl) MKKFFQEFKADIKFKSAGPGQKLKESVGEKAHKEKPNQPAPRPPRQGPTNEAQMAAAAALARLEQKQSRAWGPTSQDTIRNQVRKELQAEATVSGSPEAPGTNVVSEPREEGSAHLAVPGVYFTCPLTGATLRKDQRDACIKEAILLHFSTDPVAASIMKIYTFNKDQDRVKLGVDTIAKYLDNIHLHPEEEKYRKIKLQNKVFQERINCLEGTHEFFEAIGFQKVLLPAQDQEDPEEFYVLSETTLAQPQSLERHKEQLLAAEPVRAKLDRQRRVFQPSPLASQFELPGDFFNLTAEEIKREQRLASEAVERLSVLRTKAMREKEEQRGLRKYNYTLLRVRLPDGCLLQGTFYARERLGAVYGFVREALQSDWLPFELLASGGQKLSEDENLALNECGLVPSALLTFSWDMAVLEDIKAAGAEPDSILKPELLSAIEKLL",binding result,[6],binds
"UBXD1 R274A (full length, recombinant) (natural protein, human, UniProt Q9BZV1 1-441, looked up, UBXD1 (UBXN6), human, mutant in the context of recombinant UBXD1-fl) MKKFFQEFKADIKFKSAGPGQKLKESVGEKAHKEKPNQPAPRPPRQGPTNEAQMAAAAALARLEQKQSRAWGPTSQDTIRNQVRKELQAEATVSGSPEAPGTNVVSEPREEGSAHLAVPGVYFTCPLTGATLRKDQRDACIKEAILLHFSTDPVAASIMKIYTFNKDQDRVKLGVDTIAKYLDNIHLHPEEEKYRKIKLQNKVFQERINCLEGTHEFFEAIGFQKVLLPAQDQEDPEEFYVLSETTLAQPQSLERHKEQLLAAEPVRAKLDRQARVFQPSPLASQFELPGDFFNLTAEEIKREQRLRSEAVERLSVLRTKAMREKEEQRGLRKYNYTLLRVRLPDGCLLQGTFYARERLGAVYGFVREALQSDWLPFELLASGGQKLSEDENLALNECGLVPSALLTFSWDMAVLEDIKAAGAEPDSILKPELLSAIEKLL",binding result,[6],binds
"UBXD1 R305A/R307A/V316A (full length, recombinant) (natural protein, human, UniProt Q9BZV1 1-441, looked up, UBXD1 (UBXN6), human, mutant in the context of recombinant UBXD1-fl) MKKFFQEFKADIKFKSAGPGQKLKESVGEKAHKEKPNQPAPRPPRQGPTNEAQMAAAAALARLEQKQSRAWGPTSQDTIRNQVRKELQAEATVSGSPEAPGTNVVSEPREEGSAHLAVPGVYFTCPLTGATLRKDQRDACIKEAILLHFSTDPVAASIMKIYTFNKDQDRVKLGVDTIAKYLDNIHLHPEEEKYRKIKLQNKVFQERINCLEGTHEFFEAIGFQKVLLPAQDQEDPEEFYVLSETTLAQPQSLERHKEQLLAAEPVRAKLDRQRRVFQPSPLASQFELPGDFFNLTAEEIKREQALASEAVERLSALRTKAMREKEEQRGLRKYNYTLLRVRLPDGCLLQGTFYARERLGAVYGFVREALQSDWLPFELLASGGQKLSEDENLALNECGLVPSALLTFSWDMAVLEDIKAAGAEPDSILKPELLSAIEKLL",binding result,[6],binds
"UBXD1-eUBX-C (269–441), for fluorescence anisotropy (domain or fragment, human, UniProt Q9BZV1 269-441, looked up, Atto594 (NHS ester; the UBXD1 proteins were labeled for anisotropy), also called eUBX-C domain; not shown: GST, N-terminal, cleaved) KLDRQRRVFQPSPLASQFELPGDFFNLTAEEIKREQRLRSEAVERLSVLRTKAMREKEEQRGLRKYNYTLLRVRLPDGCLLQGTFYARERLGAVYGFVREALQSDWLPFELLASGGQKLSEDENLALNECGLVPSALLTFSWDMAVLEDIKAAGAEPDSILKPELLSAIEKLL",Kd,[4],131 ± 14 µM
"UBXD1-ΔUBX-C (1–332), recombinant, for fluorescence anisotropy (domain or fragment, human, UniProt Q9BZV1 1-332, looked up, Atto594 (NHS ester; the UBXD1 proteins were labeled for anisotropy), also called UBX deletion mutant of UBXD1; not shown: GST, N-terminal, cleaved) MKKFFQEFKADIKFKSAGPGQKLKESVGEKAHKEKPNQPAPRPPRQGPTNEAQMAAAAALARLEQKQSRAWGPTSQDTIRNQVRKELQAEATVSGSPEAPGTNVVSEPREEGSAHLAVPGVYFTCPLTGATLRKDQRDACIKEAILLHFSTDPVAASIMKIYTFNKDQDRVKLGVDTIAKYLDNIHLHPEEEKYRKIKLQNKVFQERINCLEGTHEFFEAIGFQKVLLPAQDQEDPEEFYVLSETTLAQPQSLERHKEQLLAAEPVRAKLDRQRRVFQPSPLASQFELPGDFFNLTAEEIKREQRLRSEAVERLSVLRTKAMREKEEQRGLR",Kd,[2],26 ± 2 µM
same,Kd,[3],18.6 ± 0.7 µM
